Key:
Assay in all cases: pull-down binding Z-score (relative to library population); higher = stronger binding
Details in all cases: RNA library: Library-2
[1] = tested on: TO-3-N3 (biotin conjugate)
Outline: (§1)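 Heat-folded RNA library (1 μg, Cy5 or Cy3 end label, phosphate/NaCl/KCl buffer) was captured for 60 min at 25 °C on streptavidin beads displaying 100 pmol of biotin-conjugated small molecule, then washed three times. The bound fraction, eluted in hot SDS, was hybridised to a DNA barcode microarray at 55.5 °C for 20 h. Z-scores for binding were taken against the library mean and standard deviation after beads-only subtraction and trimmed averaging of replicate barcoded probes.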

TO-N3 (biotin conjugate) = tested on: TO-N3 (biotin conjugate)
Outline: as §1

[2] = tested on: TO-3-N3-2 (biotin conjugate)
Outline: as §1

[3] = tested on: TO-N3-2 (biotin conjugate)
Outline: as §1

Sequence | pull-down binding Z-score [1] | pull-down binding Z-score (TO-N3 (biotin conjugate)) | pull-down binding Z-score [2] | pull-down binding Z-score [3]
GAGGUAAGUACGAUACUUACCUG [U1snRNP5ss-7] | -0.856 | -1.17 | -0.544 | -0.876
GAGGUAAGUAUGAUACUUACCUG [U1snRNP5ss-8] | -0.664 | -0.957 | -0.377 | -1.02
GAGGUGAGCAGGAUACUUACCUG [U1snRNP5ss-16] | -0.342 | 0.0508 | -0.182 | 0.602
GAGGUGAUGCAGAUACUUACCUG [U1snRNP5ss-20] | 0.762 | 0.68 | 0.169 | 0.343
GAGUAUUAGGUUUGAAAACCCUUGCUACUC [SHAPE_invivo_SARS-CoV-2_Motif_136] | -0.732 | -0.966 | -0.359 | -0.731
GAGUCCUCAUCGGAGGACUU [IAV_invivo_NS1_NEP_8_Motif_11+IAV_invivo_NS1_NEP_8_Motif_11] | -0.347 | -0.729 | -0.368 | -1.36
GAGUGCUAUCUAACCUUAACUUGCCUGGUUGUGAUGGUGGCAGUUUGUAUGUAAAUAAACAUGCAUUCCACACACCAGCUUUUGAUAAAAGUGCUU [DMSMaPseq_invitro_SARS-CoV-2_Motif_343] | -0.749 | -0.637 | -0.487 | -0.238
GAGUUACACAGAAUGUUCUCUAUGAGAACCAAAAAUUGAUUGCCAACCAAUUUAAUAGUGCUAUUGGCAAAAUUCAAGACUC | -0.57 | -0.581 | 0.305 | -0.226
GAGUUUUUAGUGCAGUUGGUAACAUCUGUUACACACCAUCAAAACUU | -0.305 | 0.0323 | -0.12 | 0.396
GAUAACAACUUC [SHAPE_invitro_SARS-CoV-2_Motif_16] | 0.519 | 0.252 | 0.0515 | -0.77
GAUCAGUUUCACCUAAACUGUUC | -1.06 | -1.46 | -0.626 | -1.08
GAUCUAAAACCAGUC [DMSMaPseq_invitro_SARS-CoV-2_Motif_121] | -0.0402 | -0.0985 | 0.0363 | -0.546
GAUCUCUUGUAGAUC | 0.682 | 0.342 | 0.0231 | -0.498
GAUGAGUACGAACUUAUGUACUCAUU | -0.907 | -1.25 | -0.473 | -0.762
GAUGCUGUUGUGUGUUUCAAUAGCACUUAUGCAUC | -0.907 | -0.937 | -0.542 | -0.931
GAUGGCACUUGUGGCUUAGUAGAAGUUGAAAAAGGCGUUUUGCCUCAACUUGAACAGCCCUAUGUGUUCAUC | -0.665 | -0.48 | -0.0725 | 0.432
GAUGGCUUUCCUUGAGGAAUCCCAUC [IAV_invivo_PB1_2_Motif_6+IAV_invivo_PB1_2_Motif_6] | -1.04 | -1.41 | -0.719 | -0.986

Sequence | pull-down binding Z-score [1] | pull-down binding Z-score (TO-N3 (biotin conjugate)) | pull-down binding Z-score [2] | pull-down binding Z-score [3]
GAUGGUCAAGUAGACUUAUUUAGAAAUGCCCGUAAUGGUGUUCUUAUUACAGAAGGUAGUGUUAAAGGUUUACAACCAUC | -0.346 | -0.421 | -0.245 | -0.181
GAUGGUGGCUGUAUUAAUGCUAACCAAGUCAUCGUC | -0.273 | 0.31 | 0.129 | 1.4
GAUGUAAUUAUCUUGGCAAACCACGCGAACAAAUAGAUGGUUAUGUC [DMSMaPseq_invitro_SARS-CoV-2_Motif_374] | -0.928 | -1.03 | -0.326 | -0.828
GAUGUAGAAUUGUUUGAAAAUAAAACAACAUU | -0.783 | -0.878 | -0.136 | -0.444
GAUGUUCUUGUUAACAACUAAACGAACAAUGUUUGUUUUUCUUGUUUUAUUGCCACUAGUCUCUAGUCAGUGUGUUAAUCUUACAACCAGAACUC [DMSMaPseq_invitro_SARS-CoV-2_Multi_63_ComplexLevel_1] | 0.637 | 0.534 | 0.256 | -0.457
GAUUAUGUGUACCUUCCUUACCCAGAUCCAUCAAGAAUCCUAGGGGCCGGCUGUUUUGUAGAUGAUAUCGUAAAAACAGAUGGUACACUUAUGAUU [SHAPE_invitro_SARS-CoV-2_Multi_44_ComplexLevel_1] | 0.359 | 0.661 | 0.262 | 0.0805
GAUUAUUACAGAUC [DMSMaPseq_invitro_SARS-CoV-2_Motif_169] | -0.377 | -0.695 | -0.191 | -1.16
GAUUCAGAUCUUAAUGACUUUGUC [SHAPE_invivo_SARS-CoV-2_Motif_393] | -0.246 | -0.539 | -0.439 | -0.794
GAUUUGGCUACUAACAAUC [SHAPE_invitro_SARS-CoV-2_Motif_40] | 0.705 | 0.624 | 0.126 | -0.0811
GAUUUGUCUUCUACAAUUUGCCUAUGCCAACAGGAAUAGGUUUUUGUAUAUAAUUAAGUUAAUUUUCCUCUGGCUGUUAUGGCCAGUAACUUUAGCUUGUUU | -0.15 | -0.372 | -0.102 | -0.904
GAUUUUGGGACUACCAACUC | -0.579 | -0.683 | -0.384 | -0.581
GCAAACAUACAACGUGUUGU [SHAPE_invitro_SARS-CoV-2_Motif_281] | -0.398 | -0.622 | -0.176 | -0.671
GCAAAUUAAUGC | -0.689 | -1.04 | -0.864 | -1.25
GCAAAUUGCACAAUUUGC | 0.165 | 0.0548 | 0.661 | -0.158
GCAACUUGCUGUUGUUGUUUGUAACAGUUUACUCACACCUUUUGCUCGUUGC | -0.974 | -1.09 | -0.429 | -0.851
GCAAGCUUCGAUAAUUUUAAGUUUGU [SHAPE_invitro_SARS-CoV-2_Motif_120] | 1.04 | 0.816 | 0.402 | -0.0709
